Experimental findings from patent US10640563B2, “Anti-B7-H3 antibodies and antibody drug conjugates” (AbbVie Inc., priority 2016, dated 2020) are described below.

Data set [1] deals with NCI-H146 xenograft. Description: NCI-H146 small cell lung cancer xenograft efficacy. The conditions noted are these: NCI-H146 xenograft in SCID/bg mice; 10 mg/kg IP QDx1. Type of data set: in vivo, mouse. The procedure:
Antibody MSL109 (an IgG1 antibody that binds to cytomegalovirus (CMV) glycoprotein H) was used as a control, both as a naked antibody and as an ADC (conjugated to the same synthon (CZ) as the chAb3, chAb18, and chAb13 antibodies). MSL109 is an isotype matched non-targeting control. The methods of this xenograft assay are described below.
NCI-H146 cells, NCI-1650 cells, and EBC-1 cells were obtained from the American Type Culture Collection (ATCC, Manassas, Va.). The cells were cultured as monolayers in RPMI-1640 (NCI-H146, NCI-H1650) or MEM (EBC-1) culture media (Invitrogen, Carlsbad, Calif.) that was supplemented with 10% Fetal Bovine Serum (FBS, Hyclone, Logan, Utah). To generate xenografts, 5×10^6 viable cells were inoculated subcutaneously into the right flank of immune deficient female SCID/bg mice (Charles River Laboratories, Wilmington, Mass.) respectively. The injection volume was 0.2 mL and composed of a 1:1 mixture of S MEM and Matrigel (BD, Franklin Lakes, N.J.). Tumors were size matched at approximately 200 mm^3. Antibodies and conjugates were formulated in 0.9% sodium chloride for injection and injected intraperitoneally. […] Therapy began within 24 hours after size matching of the tumors. Mice weighed approximately 22 g at the onset of therapy. Tumor volume was estimated two to three times weekly. Measurements of the length (L) and width (W) of the tumor were taken via electronic caliper and the volume was calculated according to the following equation: V=L×W^2/2. Mice were euthanized when tumor volume reached 3,000 mm3 or skin ulcerations occurred. Eight mice were housed per cage. Food and water were available ad libitum. Mice were acclimated to the animal facilities for a period of at least one week prior to commencement of experiments. Animals were tested in the light phase of a 12-hour light: 12-hour dark schedule (lights on at 06:00 hours). As described above, human IgG control antibody (MSL109) was used as a negative control agent.
To refer to efficacy of therapeutic agents, parameters of amplitude (TGImax), durability (TGD) of therapeutic response are used. TGImax is the maximum tumor growth inhibition during the experiment. Tumor growth inhibition is calculated by 100*(1−Tv/Cv) where Tv and Cv are the mean tumor volumes of the treated and control groups, respectively. TGD or tumor growth delay is the extended time of a treated tumor needed to reach a volume of 1 cm^3 relative to the control group. TGD is calculated by 100*(Tt/Ct−1) where Tt and Ct are the median time periods to reach 1 cm^3 of the treated and control groups, respectively.

Data set [2] in a line: Observation after conjugation to synthon (Method A). Particulars: after conjugation to Bcl-xLi synthon CZ. Type of data set: physicochemical. Here is the method: (§1) Nine anti-B7-H3 chimeric antibodies were conjugated to the Bcl-xL inhibiting (Bcl-xLi) synthon CZ (Example 2.1) using conjugation Method A described below. The resulting ADCs (anti-B7-H3 antibodies conjugated to synthon CZ) were tested for binding to cell surface human B7-H3 by FACS (as described in Example 6) and for cell cytotoxicity in cell lines expressing B7-H3. […] Table 6 provides cell surface binding and cytotoxicity activity of anti-B7-H3 chimera ADCs against breast cancer cell HCC38 expressing human B7-H3.
A solution of Bond-Breaker™ tris(2-carboxyethyl)phosphine (TCEP) solution (10 mM, 0.017 mL) was added to a solution of antibody (10 mg/mL, 1 mL) preheated to 37° C. The reaction mixture was kept at 37° C. for 1 hour. The solution of reduced antibody was added to a solution of synthon (3.3 mM, 0.160 mL in DMSO) and gently mixed for 30 minutes. The reaction solution was loaded onto a desalting column (PD10, washed with Dulbecco's phosphate-buffered saline [DPBS] 3× before use), followed by DPBS (3 mL). The purified ADC solution was filtered through a 0.2 micron, low protein-binding 13 mm syringe-filter and stored at 4° C.

The nature of data set [3]: Size exclusion chromatography, % aggregate of ADC. Format: physicochemical. The conditions noted are these: ADC with synthon CZ, conjugation Method A. Here is the method:
The DAR and percentage aggregation of ADCs synthesized were determined by LC-MS and size exclusion chromatography (SEC), respectively.
Size exclusion chromatography was performed using a Shodex KW802.5 column in 0.2 M potassium phosphate pH 6.2 with 0.25 mM potassium chloride and 15% IPA at a flow rate of 0.75 ml/min. The peak area absorbance at 280 nm was determined for each of the high molecular weight and monomeric eluents by integration of the area under the curve. The % aggregate fraction of the conjugate sample was determined by dividing the peak area absorbance at 280 nm for the high molecular weight eluent by the sum of the peak area absorbances at […] of the high molecular weight and monomeric eluents multiplied by 100%.
A general note: Size exclusion chromatography separates by hydrodynamic size, large species first.

In data set [4] the test system is HCC38 cell line. Description: Cell cytotoxicity of ADCs in HCC38 cell line. Type of data set: cell-based. The conditions noted are these: CZ conjugates. The procedure:
The humanization of chAb18 generated 10 variants (described above in Table 9) that retained binding to human and cyno B7-H3 as assessed by FACS (the method of which is described above in Example 6). These variants were further characterized for binding by SPR and were successfully conjugated to the Bcl-xL inhibitor synthon CZ using Method A (described above) and assessed for cell cytotoxicity as described in Example 7. The parental chAb18 from which the variants were derived was also tested as a comparator. All humanized variants had similar binding properties as assessed by biacore, and retained binding activity to cell surface expressed as conjugates with the CZ synthon. The cytotoxicity of all of the variants as CZ synthons were similar to the chAb18 from which they were derived.
Humanized chAb18 variants were conjugated to the CZ synthon and tested for cytotoxicity in HCC38 cell line.

Data set [5] deals with HCC38 (breast cancer) cells. The data set is described as follows: In vitro cell viability assay (CellTiter-Glo), HCC38. Format: cell-based, human. The conditions noted are these: ADC with synthon CZ; HCC38 breast cancer cells; viability after 5 days; read-out: Cytotoxicity (HCC38 cell line IC50nM). The procedure:
as §1
The tumor cell lines HCC38 (breast cancer), NCI-H1650 (NSCLC) and NCI-H847 (small cell lung cancer cell line) were obtained from American Type Culture Collection (ATCC). Cells were grown in 96-well culture plates using recommended growth media overnight at a density of 5×10^3 (HCC38) or 20×10^3 (NCI-H847) or 40×10^3 (NCI-H1650) per well. The following day, treatments were added in fresh media to triplicate wells. Cellular viability was determined 5 days later using the CellTiter-Glo Luminescent Cell Viability Assay kit (Promega), as directed in the manufacturer's protocol. Cell viability was assessed as percentage of control untreated cells.
In general terms: ATP-based viability assays read luminescence as a measure of living cells.

For the molecule “MSL109: an IgG1 antibody that binds to cytomegalovirus (CMV) glycoprotein H; isotype matched non-targeting control [reference compound]”, in data set [1], the “TGD (%)” value was 0% and the “TGImax (%)” value worked out at 0%.

B1: chAb18-CZ (conjugate)
VH: QVQLQQSAAELARPGASVKMSCKASGYSFTSYTIHWVKQRPGQGLEWIGYINPNSRNTDYNQKFKDETTLTADRSSSTAYMQLISLTSEDSAVYYCARYSGSTPYWYFDVWGAGTTVTVSS
VL: QIVLTQSPAILSASPGEKVTMTCRASSSVSYMNWYQQKPGSSPKPWIYATSNLASGVPARFSVSVSGTSHSLTISRVEAEDAATYYCQQWSSNPLTFGAGTKLELK
Consider B1, for which the Conjugation observation entry in data set [2] was “Clear”. For the same molecule, the “% agg by SEC” value in data set [3] is on record as 4.3%. In addition, the IC50 in data set [4] (Table 10) and in data set [5] was 0.28 nM each time. In addition, in data set [1], the “TGD (%)” value is reported as 100%. For the same molecule, the “TGImax (%)” value in data set [1] came to 90%.

B2: chAb13-CZ (conjugate)
VH: DVQLQESGPDLVKPSQSLSLTCTVTGYSITSGYSWHWIRQFPGNKLEWMGYIHSSGSTNYNPSLKSRISINRDTSKNQFFLQLNSVTTEDTATYYCAGYDDYFEYWGQGTTLTVSS
VL: DIVMTQSQKFMSTSVGDRVSVTCKASQNVGFNVAWYQQKPGQSPKALIYSASYRYSGVPDRFTGSGSGTDFTLTISNVQSEDLAEYFCQQYNSYPFTFGSGTKLEIK
For the molecule B2, in data set [2], the Conjugation observation result was “Clear”. The “% agg by SEC” value in data set [3] is 8.3%. In addition, in data set [1], the “TGD (%)” value turned out to be 104% and the “TGImax (%)” value is on record as 81%. Moreover, the IC50 in data set [5] is 0.18 nM.

B3: chAb2-CZ (conjugate)
VH: QVQLQQPGAELVKPGASVKLSCKASGYTFTSYWMHWVKQRPGQGLEWIGMIHPDSGTTNYNEKFRSKATLTVDKSSSTAYMQLSSLTSEDSAVYYCAVYYGSTYWYFDVWGTGTTVTVSS
VL: DVVMTQTPLSLPVSLGDQAYISCRSSQSLVHINGNTYLHWYRQKPGQSPKLLIYKVSNRFSGVPDRFSGSGSGTDFTLKISRVEAEDLGVYFCSQSTHFPFTFGSGTKLEIK
With B3, in data set [2], the Conjugation observation entry is “Precipitates”. The “% agg by SEC” value in data set [3] came out at 5.9%. The IC50 in data set [5] came out at 4.77 nM.

B4: chAb3-CZ (conjugate)
VH: QVQLQQPGAELVKPGASVKLSCKASGYTFSSYWMHWVKQRPGQGLEWIGLIHPDSGSTNYNEMFKNKATLTVDRSSSTAYVQLSSLTSEDSAVYFCAGGGRLYFDYWGQGTTLTVSS
VL: DVVMTQTPLSLPVSLGDQASISCRSSQSLVHSNGDTYLRWYLQKPGQSPKLLIYKVSNRFSGVPDRFSGSGSGTDFTLKITRVEAEDLGVYFCSQSTHVPYTFGGGTKLEIK
modifications: drug conjugate; Synthetic chAb3 VH amino acid sequence; Synthetic chAb3 VL amino acid sequence
In the case of B4, in data set [2], the Conjugation observation result was “Clear”. Further, the “% agg by SEC” value in data set [3] is recorded as 6.3%. Besides, the IC50 in data set [4] (Table 14) was 0.17 nM. In data set [1], the “TGD (%)” value turned out to be 109% and the “TGImax (%)” value is on record as 87%. Besides, in data set [5], the IC50 stood at 0.17 nM.

B5: chAb14-CZ (conjugate)
VH: EVKLVESGGGLVKPGGSLKLSCAASGFTFSSYGMSWVRQTPEKRLEWVATISGGGTNTYYPDSVEGRFTISRDNAKNFLYLQMSSLRSEDTALYYCARHYGSQTMDYWGQGTSVTVSS
VL: DIQMTQSPASLSASVGETVTITCRTSGNIHNYLTWYQQKQGKSPQLLVYNAKTLADGVPSRFSGSGSGTQFSLKINSLQPEDFGSYYCQHFWSIMWTFGGGTKLEIK
As for B5, the Conjugation observation entry in data set [2] is “Clear”. Further, in data set [3], the “% agg by SEC” value was found to be 1.9%. Also, in data set [5], the IC50 is 2.01 nM.

B6: chAb16-CZ (conjugate)
VH: EVKLLESGGGLVQPGGSLKLSCAASGFDFSRYWMSWVRQAPGKGLEWIGEINPDSSTINYTPSLKDKFIISRDNAKNTLYLQMSKVRSEDTALYYCARPGFGNYIYAMDYWGQGTSVTVSS
VL: DIQMTQTTSSLSASLGDRVTINCRASQDISNFLNWYQQKPDGTVKLLIYYTSRLYLGVPSRFSGSGSGTDYSLTISNLEQEDIATYFCQQGNTLPPTFGGGTKLEIK
Consider B6, for which, in data set [2], the Conjugation observation entry is given as “Precipitates”. The “% agg by SEC” value in data set [3] was 2.3%. The IC50 in data set [5] came to 21.9 nM.
